In doi:10.1101/2020.08.19.257774 (bioRxiv, 2020):

Columns and labels:
negative stain EM = target: the molecule itself; test: negative stain EM
cryo-EM structure = target: the molecule itself; test: cryo-EM structure

B1: Synechocystis LPOR (enzyme, UniProt Q59987 1-322, looked up)
chain: MEQPMKPTVIITGASSGVGLYGAKALIDKGWHVIMACRNLDKTQKVADELGFPKDSYTIIKLDLGYLDSVRRFVAQFRELGRPLKALVCNAAVYFPLLDEPLWSADDYELSVATNHLGHFLLCNLLLEDLKACPDADKRLIILGTVTANSKELGGKIPIPAPPDLGNFEGFEAGFKKPIAMINNKKFKSGKAYKDSKLCNMLTTRELHRRFHQETGIVFNSLYPGCVADTPLFRNHYSLFRTIFPWFQKNVTKGYVSQELAGERVAMVVADDKFKDSGVHWSWGNRQQAGREAFVQELSEQGSDAQKAQRMWDLSEKLVGLV
B1: binds (negative stain EM).

B2: A. thaliana Light-dependent Protochlorophyllide OxidoReductase isoform B (AtPORB) (enzyme)
chain: QTAATSSPTVTKSVDGKKTLRKGNVVVTGASSGLGLATAKALAETGKWNVIMACRDFLKAERAAKSVGMPKDSYTVMHLDLASLDSVRQFVDNFRRTETPLDVLVCNAAVYFPTAKEPTYSAEGFELSVATNHLGHFLLARLLLDDLKKSDYPSKRLIIVGSITGNTNTLAGNVPPKANLGDLRGLAGGLNGLNSSAMIDGGDFDGAKAYKDSKVCNMLTMQEFHRRFHEETGVTFASLYPGCIASTGLFREHIPLFRALFPPFQKYITKGYVSETESGKRLAQVVSDPSLTKSGVYWSWNNASASFENQLSEEASDVEKARKVWEISEKLVGLA
B2: binds (cryo-EM structure).
